Reference: paper PMC11480844 (2024)

B1: H2-Kb / Ed5 (parent complex)
chain 1: GDSVTQTEGPVTVSESESLIINCTYSATSIAYPNLFWYVRYPGEGLQLLLKVITAGQKGSSRGFEATYNKETTSFHLQKASVQESDSAVYYCALGSYNQGKLIFGQGTKLSIKP
chain 2: DTTVKQNPRYKLARVGKPVNLICSQTMNHDTMYWYQKKPNQAPKLLLFYYDKILNREADTFEKFQSSRPNNSFCSLYIGSAGLEYSAMYLCASSRRLGASQNTLYFGAGTRLSVL
chain 3: not shown
chain 4: IQKTPQIQVYSRHPPENGKPNILNCYVTQFHPPHIEIQMLKNGKKIPKVEMSDMSFSKDWSFYILAHTEFTPTETDTYACRVKHDSMAEPKTVYWDRDM
chain 5: SIINFEKL

Variants of: B1
Test: % of reporter cells activated (NFAT-GFP), raw; further: test concentration or dose not given here

Variant	ratio to parent
chain 5 K7V	0.62
chain 5 K7I	0.65
chain 5 K7G	0.658
chain 5 L8D	0.747
chain 5 L8P	0.826
chain 5 L8C	0.929
chain 5 E6Y	0.633
chain 5 E6T	0.622
chain 5 E6G	0.939
chain 5 E6R	0.0689
chain 5 E6N	0.498
chain 5 E6W	0.54
chain 5 E6D	0.941
chain 5 S1N	0.305
chain 5 S1Y	0.689
chain 5 S1V	0.126
chain 5 S1I	0.00825
chain 5 S1G	0.491
chain 5 I2E	0.852
chain 5 I2A	1.01
chain 5 I2P	1.04
chain 5 I2Q	0.711
chain 5 I2L	0.974
chain 5 I2C	0.958

Variant	ratio to parent
chain 5 I2K	0.798
chain 5 I2S	0.989
chain 5 F5T	0.887
chain 5 F5P	0.98
chain 5 F5L	0.996
chain 5 F5Q	0.951
chain 5 F5G	0.698
chain 5 I3T	0.512
chain 5 I3V	0.661
chain 5 I3D	0.436
chain 5 I3P	0.36
chain 5 I3M	0.723
chain 5 I3K	0.682
chain 5 I3N	0.164
chain 5 I3E	0.287
chain 5 I3F	0.0887
chain 5 I3L	0.897
chain 5 I3W	0.372
chain 5 I3Y	0.0245
chain 5 N4H	0.11
chain 5 N4Q	0.00458
chain 5 N4M	0.00113
chain 5 N4W	0.0358

Other lines, results leading:

ratio to parent	Variant
0.686	chain 5 K7C
0.853	chain 5 K7R
0.602	chain 5 K7T
0.605	chain 5 K7S
0.728	chain 5 K7L
0.728	chain 5 K7P
0.546	chain 5 L8V
0.848	chain 5 L8Y
0.671	chain 5 L8T
0.711	chain 5 L8A
0.753	chain 5 L8N
0.758	chain 5 L8I
0.443	chain 5 E6M
0.165	chain 5 E6L
0.554	chain 5 E6H
0.506	chain 5 E6F
0.685	chain 5 S1K
0.559	chain 5 S1H
0.0691	chain 5 S1F
0.749	chain 5 I2N
0.875	chain 5 I2G
0.642	chain 5 I2Y
1.04	chain 5 F5C
0.855	chain 5 F5N
0.673	chain 5 I3C
0.329	chain 5 I3S
0.064	chain 5 I3R
0.0112	chain 5 N4F
